Results published in patent publication US20100254896A1.

molecular target: αvβ3 receptors on M21 human melanoma cells (human) (UniProt P06756); assay: cell-based or functional assay
Chain of UniProt P06756 (P06756 31-1048, chain 1 of 2): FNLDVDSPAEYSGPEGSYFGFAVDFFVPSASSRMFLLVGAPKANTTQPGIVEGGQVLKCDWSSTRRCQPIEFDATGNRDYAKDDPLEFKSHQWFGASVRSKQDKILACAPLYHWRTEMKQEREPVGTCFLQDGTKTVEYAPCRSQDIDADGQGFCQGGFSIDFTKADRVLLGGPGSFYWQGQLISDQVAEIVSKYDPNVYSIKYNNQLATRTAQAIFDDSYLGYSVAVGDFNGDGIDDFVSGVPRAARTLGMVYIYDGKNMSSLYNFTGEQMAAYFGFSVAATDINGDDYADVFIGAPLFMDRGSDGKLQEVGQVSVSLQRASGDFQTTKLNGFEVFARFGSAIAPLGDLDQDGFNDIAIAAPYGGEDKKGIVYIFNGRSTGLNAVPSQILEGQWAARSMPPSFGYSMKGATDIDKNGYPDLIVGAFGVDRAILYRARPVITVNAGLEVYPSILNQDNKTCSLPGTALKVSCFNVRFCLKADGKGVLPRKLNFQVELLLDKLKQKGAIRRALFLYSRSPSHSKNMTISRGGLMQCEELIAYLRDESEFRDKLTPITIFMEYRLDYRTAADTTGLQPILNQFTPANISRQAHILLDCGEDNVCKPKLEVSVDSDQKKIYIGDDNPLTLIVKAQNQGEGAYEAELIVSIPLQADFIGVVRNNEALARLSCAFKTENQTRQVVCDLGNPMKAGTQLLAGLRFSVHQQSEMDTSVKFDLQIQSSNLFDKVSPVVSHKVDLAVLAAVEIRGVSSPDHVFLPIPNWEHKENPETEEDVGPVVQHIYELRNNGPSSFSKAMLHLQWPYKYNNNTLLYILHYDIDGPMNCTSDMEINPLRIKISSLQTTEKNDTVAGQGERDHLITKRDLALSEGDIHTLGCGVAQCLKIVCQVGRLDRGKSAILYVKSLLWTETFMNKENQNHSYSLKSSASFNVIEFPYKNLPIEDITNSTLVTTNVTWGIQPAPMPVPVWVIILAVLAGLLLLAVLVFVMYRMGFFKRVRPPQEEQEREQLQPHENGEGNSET
Chain of UniProt P06756 (P05106 27-788, chain 2 of 2, further chain): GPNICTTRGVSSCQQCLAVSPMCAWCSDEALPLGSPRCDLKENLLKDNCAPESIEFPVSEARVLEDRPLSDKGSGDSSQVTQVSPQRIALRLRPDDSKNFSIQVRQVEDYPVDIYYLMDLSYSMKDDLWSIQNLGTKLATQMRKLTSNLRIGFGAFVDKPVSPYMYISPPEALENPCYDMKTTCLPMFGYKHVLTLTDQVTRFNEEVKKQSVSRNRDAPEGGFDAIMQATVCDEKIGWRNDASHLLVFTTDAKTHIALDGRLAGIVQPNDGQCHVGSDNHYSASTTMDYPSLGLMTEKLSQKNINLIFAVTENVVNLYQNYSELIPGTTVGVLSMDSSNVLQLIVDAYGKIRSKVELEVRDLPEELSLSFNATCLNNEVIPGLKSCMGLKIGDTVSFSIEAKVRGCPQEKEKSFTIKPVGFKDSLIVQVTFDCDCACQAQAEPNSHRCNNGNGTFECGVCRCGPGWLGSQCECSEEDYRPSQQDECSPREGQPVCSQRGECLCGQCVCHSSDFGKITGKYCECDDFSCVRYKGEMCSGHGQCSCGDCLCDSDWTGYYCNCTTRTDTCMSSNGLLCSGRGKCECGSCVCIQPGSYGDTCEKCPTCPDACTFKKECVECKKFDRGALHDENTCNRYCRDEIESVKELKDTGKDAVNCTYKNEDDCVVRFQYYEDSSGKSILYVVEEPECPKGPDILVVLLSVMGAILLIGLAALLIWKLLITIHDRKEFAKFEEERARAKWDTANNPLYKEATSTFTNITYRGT

Row | Substance | phage internalization assay, pfu/µl
1 | RGD (targeted null AAVP, Example 2) (peptide) | 14000 pfu/µl
2 | fdTNF-α (non-targeted TNF-α expressing AAVP) | 600 pfu/µl
3 | RGDTNF-α (targeted TNF-α expressing AAVP) (peptide) | 21500 pfu/µl
4 | fd (non-targeted null AAVP) | 300 pfu/µl
